The text below walks through data of patent US20190117763A1.

This test deals with wildtype PV1 VLPs (74S empty capsids, N-antigenic form) (poliovirus serotype 1 (PV1), Mahoney strain) (UniProt P03300).
Sequence of UniProt P03300 (P03300 2-341 limits assumed, chain 1 of 3): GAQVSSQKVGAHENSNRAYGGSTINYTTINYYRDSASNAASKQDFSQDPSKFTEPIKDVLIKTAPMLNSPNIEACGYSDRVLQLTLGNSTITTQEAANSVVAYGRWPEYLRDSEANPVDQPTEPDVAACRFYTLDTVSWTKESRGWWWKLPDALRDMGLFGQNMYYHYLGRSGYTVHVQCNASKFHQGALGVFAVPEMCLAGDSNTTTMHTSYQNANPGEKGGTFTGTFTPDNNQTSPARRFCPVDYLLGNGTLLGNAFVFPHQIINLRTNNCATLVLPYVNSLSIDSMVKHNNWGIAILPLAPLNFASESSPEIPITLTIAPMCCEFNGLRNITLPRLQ
Sequence of UniProt P03300 (P03300 342-579 limits assumed, chain 2 of 3): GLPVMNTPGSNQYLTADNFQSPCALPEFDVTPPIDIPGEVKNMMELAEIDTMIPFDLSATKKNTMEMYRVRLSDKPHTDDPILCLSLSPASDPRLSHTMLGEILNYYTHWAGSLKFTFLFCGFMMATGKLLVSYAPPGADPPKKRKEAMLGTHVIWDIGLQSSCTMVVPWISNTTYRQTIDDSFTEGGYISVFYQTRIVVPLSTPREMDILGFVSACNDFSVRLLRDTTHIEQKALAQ
Sequence of UniProt P03300 (P03300 580-881 limits assumed, chain 3 of 3): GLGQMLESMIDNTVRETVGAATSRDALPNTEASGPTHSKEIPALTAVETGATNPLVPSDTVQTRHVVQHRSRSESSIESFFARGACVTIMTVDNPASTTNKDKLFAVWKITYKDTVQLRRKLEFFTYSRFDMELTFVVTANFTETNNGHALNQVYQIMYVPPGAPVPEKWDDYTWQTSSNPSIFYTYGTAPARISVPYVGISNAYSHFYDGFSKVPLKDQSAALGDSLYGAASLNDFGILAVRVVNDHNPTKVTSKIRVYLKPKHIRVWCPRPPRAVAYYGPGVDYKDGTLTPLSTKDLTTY

In turn, Novus 14D2(7C5) monoclonal antibody gave a N-antigenic units/µl (N-antigenic units/µl) of 6.15.
